From patent US7488588 (LICENTIA, dated 2009)

B1: human persephin (PSPN) (ligand, UniProt O60542 61-156, looked up)
chain: ALSGPCQLWSLTLSVAELGLGYASEEKVIFRYCAGSCPRGARTQHGLALARLQGQGRAHGGPCCRPTRYTDVAFLDDRHRWQRLPQLSAAACGCGG
notes: Cross-linking gels show monomer (approx. 14-16 kDa) and dimer (32 kDa) bands; also called unlabeled PSPN
B2: human GFRα4, GPI-anchored isoform a (GFRα4a) (receptor)
chain: VGGNRCVDAAEACTADARCQRLRSEYVAQCLGRAAQGGCPRARCRRALRRFFARGPPALTHALLFCPCAGPACAERRRQTFVPSCAFSGPGPAPPSCLEPLNFCERSRVCRPRLLAFQVSCTPAPSAPDGCLLDQGARCLRAYAGLVGTAVTPNYVDNVSARVAPWCDCGASGNRREDCEAFRGLFTRNRCLDGAIQAFASGWPPVLLDQLNPQGDPEHSLLQVSSTG
modifications: GPI anchor (released by PI-PLC)
notes: Expressed from full-length GFRA4a cDNA (pCR3.1) in mouse Neuro-2a cells (endogenous Ret), in CHO cells (no Ret) or microinjected into mouse SCG neurons; also called hGFRα4; GFRA4a

Experiments:
[1] = biological target: B2; experiment: displacement of 0.9 nM [125I]PSPN by unlabeled PSPN from GFRA4a-transfected Neuro-2a cells (endogenous Ret), 4 hrs on ice
Method: (§1) J. Milbrandt and E. M. Johnson, Jr.). […] was calculated using Cheng-Prusoff equation (McGonigle, et al., 1994).

[2] = biological target: T1, rat GDNF (glial cell line-derived neurotrophic factor) (rat, UniProt Q07731 78-211); experiment: displacement of 0.9 nM [125I]PSPN from GFRA4a-transfected Neuro-2a cells
T1 sequence (looked up): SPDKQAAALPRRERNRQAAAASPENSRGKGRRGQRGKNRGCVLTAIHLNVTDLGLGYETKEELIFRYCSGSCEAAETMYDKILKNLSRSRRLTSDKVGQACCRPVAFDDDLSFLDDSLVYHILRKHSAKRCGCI
Method: as §1

human neurturin (NRTN) = biological target: T2, human neurturin (NRTN) (human, UniProt Q99748 96-197); experiment: as above
T2 sequence (looked up): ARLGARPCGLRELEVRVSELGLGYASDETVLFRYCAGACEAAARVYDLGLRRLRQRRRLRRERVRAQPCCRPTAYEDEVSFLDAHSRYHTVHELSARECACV
Method: as §1

human persephin (PSPN) = biological target: B1; experiment: displacement of [125I]PSPN from GFRA4a-transfected Neuro-2a cells; KD calculated using Cheng-Prusoff equation
Method: as §1

Row | Binder | IC50 [1] | binding result [2] | binding result (human neurturin (NRTN)) | Kd (human persephin (PSPN))
1 | B1 | 1 nM |  |  | 
2 | B2 |  | no binding (tested: up to 300 nM) | no binding (tested: up to 200 nM) | ~0.1 nM
